T1: [Asp49] PLA2 (Protobothrops flavoviridis, UniProt P06859 17-138)
T1 construct: hemolytic [Asp49] phospholipase A2 of Protobothrops flavoviridis; source: prepared from habu (Protobothrops flavoviridis) crude venom
T1 sequence (looked up): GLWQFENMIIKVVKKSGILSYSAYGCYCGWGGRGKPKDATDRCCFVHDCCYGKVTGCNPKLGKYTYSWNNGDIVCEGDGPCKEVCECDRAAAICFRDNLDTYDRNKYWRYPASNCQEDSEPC

B1: TLf2, thrombin-like serine protease TLSP2 (natural protein)
chain: IIGGDECNINEHRFLVALYTFRSRRLHCGGILINQEWVLSAARCNRKNIRIQLGMHSTNVINEDVQTRVPKEKFFCLSSKTHTRWNKDIMLIRLNSPVNNSTHIAPVSLPSNPPSLGSVCRVMGWGTISATKETHPDVPHCANINILDYSVCRAAYARLPATSRTLCAGILEGGKDSCKADSGGPLICNGEIQGIVSRGGHSCGQPRKPGLYTKVFDHLDWIKSIIAGNKDAICPP
notes: numbers count on: the mature protein; also called svSP02_TLf2; basic 30 kDa protein; source: purified from habu crude venom (CM-52 basic fraction #15, POROS HS column)
B2: TLf1 (flavoxobin) (enzyme, Protobothrops flavoviridis)
chain: VIGGDECNINEHPFLVALYDAWSGRFLCGGTLINPEWVLTAAHCDSKNFKMKLGAHSQKVLNEDEQIRNPKEKFICPNKKNTEVLDKDIMLIKLDSPVSYSEHIAPLSLPSSPPSVGSVCRIMGWGSITPVEETFPDVPHCANINLLDDVECKPGYPELLPEYRTLCAGVLQGGIDTCGFDSGTPLICNGQFQGIVYIGSHPCGQSRKPGIYTKVFDYNAWIQSIIAGNTAATCLP
notes: flavoxobin, thrombin-like serine protease of Protobothrops flavoviridis; also called svSP01_TLf1; flavoxovin; source: purified from habu crude venom (CM-52 flow-through, Hi-trap benzamidine column)
B3: [Lys49]PLA2 (BPII) (natural protein)
chain: SLVQLWKMIFQETGKEAAKNYGLYGCNCGVGRRGKPKDATDSCCYVHKCCYKKVTGCNPKMDSYSYSWKNKAIVCGEKNPPCLKQVCECDKAVAICLRENLGTYNKKYTIYPKPFCKKADTC
notes: [Lys49] phospholipase A2 BPII of Protobothrops flavoviridis; also called myonecrotic [Lys49]; PLA2; source: prepared from habu (Protobothrops flavoviridis) crude venom
B4: [Lys49] PLA2 (BPII) (natural protein)
chain: B3 chain
notes: Basic protein II (BPII), [Lys49] phospholipase A2 myotoxin of Protobothrops flavoviridis venom; also called [Lys49]PLA2 myotoxin; myonecrotic [Lys49]; PLA2

Assays:
Settings in all cases: both partners purified
[Asp49] PLA2 = target: T1, [Asp49] PLA2; experiment: SPR; BIAcore X; TLf1 or TLf2 immobilised on a CM5 chip by amine coupling; BPII or [Asp49] PLA2 injected as analytes (12.5-100 ug/ml) in HBS (10 mM HEPES pH 7.4, 0.15 M NaCl, 3 mM EDTA, 0.005% surfactant P-20) at 20 uL/min; nonlinear least-squares fitting with BIAevaluation
TLf1 (flavoxobin) = target: B2; experiment: as above
[1] = target: B1; experiment: as above
[2] = target: T2, thrombin-like serine protease TLSP2 (TLf2) (Protobothrops flavoviridis, UniProt O13057 25-260); experiment: SPR; BIAcore X; TLf2 or TLf1 amine-coupled on CM5 chip; BPII or [Asp49] PLA2 injected as analytes (12.5-100 ug/ml) in HBS (10 mM HEPES pH 7.4, 0.15 M NaCl, 3 mM EDTA, 0.005% P-20), 20 uL/min; unmodified CM5 as control; regeneration 10 mM HCl
T2 construct: also called svSP02_TLf2; basic 30 kDa protein; source: purified from habu (Protobothrops flavoviridis) crude venom (CM-52, POROS HS)

flavoxobin (TLf1) = target: T3, flavoxobin (TLf1) (Protobothrops flavoviridis, UniProt P05620 25-260); experiment: as above
T3 construct: Flavoxobin (TLf1), thrombin-like serine protease of Protobothrops flavoviridis venom; also called flavoxovin; svSP01_TLf1

Binder | Ka ([Asp49] PLA2) [M⁻¹] | Kd ([Asp49] PLA2) [nM] | koff ([Asp49] PLA2) [s⁻¹] | kon ([Asp49] PLA2) [M⁻¹ s⁻¹] | also measured
B1 | 7.9e+06 | 127 | 0.000791 | 6250 | –
B2 | 371000 | 2690 | 0.0125 | 4660 | –
B3 | – | – | – | – | Ka (TLf1 (flavoxobin)): 6.56e+06 M⁻¹; koff (TLf1 (flavoxobin)): 0.00257 s⁻¹; kon (TLf1 (flavoxobin)): 16900 M⁻¹ s⁻¹; Ka [1]: 1.02e+07 M⁻¹; koff [1]: 0.00122 s⁻¹; kon [1]: 12500 M⁻¹ s⁻¹
B4 | – | – | – | – | Kd [2]: 97.9 nM; Kd (flavoxobin (TLf1)): 152 nM

Source: PMC8599580, “Focused Proteomics Analysis of Habu Snake (Protobothrops flavoviridis) Venom Using Antivenom-Based Affinity Chromatography Reveals Novel Myonecrosis-Enhancing Activity of Thrombin-Like Serine Proteases” (Frontiers in Pharmacology, 2021)
